Measurements reported in US20230365642A1 (published 2023).

Assays:
IL2R alpha (CD25) = target: T1, IL2R alpha (CD25) (UniProt P01589 22-213); assay: BLI
T1 chain: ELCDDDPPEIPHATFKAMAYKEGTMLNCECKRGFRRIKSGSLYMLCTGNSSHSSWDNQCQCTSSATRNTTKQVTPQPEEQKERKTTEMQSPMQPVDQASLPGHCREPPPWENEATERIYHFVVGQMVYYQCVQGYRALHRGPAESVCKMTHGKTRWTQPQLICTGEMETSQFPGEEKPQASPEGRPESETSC

IL2R beta (CD122) = target: T2, IL2R beta (CD122) (UniProt P14784 27-239); assay: BLI
T2 chain: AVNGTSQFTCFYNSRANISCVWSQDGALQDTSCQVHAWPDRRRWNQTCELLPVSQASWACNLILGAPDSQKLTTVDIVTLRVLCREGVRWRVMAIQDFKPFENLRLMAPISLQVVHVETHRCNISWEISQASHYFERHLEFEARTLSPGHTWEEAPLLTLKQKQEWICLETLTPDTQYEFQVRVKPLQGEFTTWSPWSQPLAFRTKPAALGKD

[1] = target: T3, IL13Rα2 Protein, Human, Recombinant, His Tag (human, UniProt Q14627 27-343); assay: SPR; kinetic
T3 chain: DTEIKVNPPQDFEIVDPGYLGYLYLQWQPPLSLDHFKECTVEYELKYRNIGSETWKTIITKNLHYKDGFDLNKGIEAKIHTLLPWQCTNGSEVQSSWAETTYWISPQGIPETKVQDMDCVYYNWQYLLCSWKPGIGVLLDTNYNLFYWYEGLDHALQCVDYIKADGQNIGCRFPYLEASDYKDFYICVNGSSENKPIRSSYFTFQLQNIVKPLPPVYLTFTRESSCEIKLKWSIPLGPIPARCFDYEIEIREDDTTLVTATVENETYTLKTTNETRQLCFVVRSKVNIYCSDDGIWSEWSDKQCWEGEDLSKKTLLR

[2] = target: T4, IL13Rα Protein, Human, Recombinant, His Tag (human IL13Rα1) (human, UniProt P78552 22-343); assay: SPR; equilibrium
T4 chain: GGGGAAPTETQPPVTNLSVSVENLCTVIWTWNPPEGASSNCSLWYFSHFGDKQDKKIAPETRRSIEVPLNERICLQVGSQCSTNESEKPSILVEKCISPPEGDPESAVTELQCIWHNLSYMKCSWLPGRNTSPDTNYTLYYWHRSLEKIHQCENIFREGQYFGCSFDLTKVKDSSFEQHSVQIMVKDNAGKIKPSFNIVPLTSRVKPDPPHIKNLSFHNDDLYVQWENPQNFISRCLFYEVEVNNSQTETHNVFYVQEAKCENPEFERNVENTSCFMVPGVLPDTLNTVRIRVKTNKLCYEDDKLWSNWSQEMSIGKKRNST

[3] = target: T4, IL13Rα Protein, Human, Recombinant, His …; assay: SPR; kinetic
[4] = target: T3, IL13Rα2 Protein, Human, Recombinant, …; assay: SPR; equilibrium
MDNA109-Alb (2nd Gen.) = assay: BLI
MDNA19 (3rd Gen.) = assay: BLI
MDNA109 (1st Gen.) = assay: BLI

B1: MDNA109-Fc (2nd Gen.) (protein)
chain: APTSSSTKKTQLQLEHLLLDLQMILNGINNYKNPKLTRMLTFKFYMPKKATELKHLQCLEEELKPLEEVLNLAQSKNFHFDPRDVVSNINVFVLELKGSETTFMCEYADETATIVEFLNRWITFCQSIISTLTGGGGSGGGGSGGGGSDKTHTCPPCPAPELLGGPSVFLFPPKPKDTLMISRTPEVTCVVVDVSHEDPEVKFNWYVDGVEVHNAKTKPREEYASTYRVVSVLTVLHQDWLNGKEYKCKVSNKALPAPIEKTISKAKGQPREPQVYTLPPSREEMTKNQVSLTCLVKGFYPSDIAVEWESNGQPENNYKTTPPVLDSDGSFFLYSKLTVDKSRWQQGNVFSCSVMHEALHNHYTQKSLSLSPGK
IL2R alpha (CD25)
  Kd: 14 nM
IL2R beta (CD122)
  Kd: 2.7 nM

B2: C12 (protein)
chain: PGPVPPSTAHRELIEELVNITQNQKAPLCNGSMVWSINLTAGMYCAALESLINVSGCSAIEKTQRMLSGFCPHKVSAGQFSSLHVMDSRIEVAQFVKDLLNHLRALFKEGQFN
[1]
  Kd: 0.053 nM
[2]
  Kd: 15000 nM

B3: C11 (protein)
chain: PGPVPPSTAHRELIEELVNITQNQKAPLCNGSMVWSINLTAGMYCAALESLINVSGCSAIEKTQRMLSGFCPHKVSAGQFSSLHVTGRKIEVAQFVKDLLLHLKKLFKEGQFN
[1]
  Kd: 0.0001 nM
[2]
  Kd: 3600 nM

B4: C10 (protein)
chain: PGPVPPSTAHLELIEELINITQNQKAPLCNGSMVWSINLTAGMYCAALESLINVSGCSAIEKTQRMLSGFCPHKVSAGQFSSLHVMDTRIEVAQFVKDLLLHLKKLFKEGQFN
[1]
  Kd: 5 nM
[2]
  Kd: 264 nM

B5: D7 (protein)
chain: PGPVPPSTAARELIEELFNITQNQKAPLCNGSMVWSINLTAGMYCAALESLINVSGCSAIEKTQRMLSGFCPHKVSAGQFSSLHVKKTRIEVAQFVKDLLIHLRKLFKEGQFN
[1]
  Kd: 0.003 nM
[2]
  Kd: 4100 nM

B6: C4 (protein)
chain: PGPVPPSTAVRELIEELVNITQNQKAPLCNGSMVWSINLTAGMYCAALESLINVSGCSAIEKTQRMLSGFCPHKVSAGQFSSLHVRDTRIEVAQFVKDLLNHLKELFTEGQFN
[1]
  Kd: 0.393 nM
[2]
  Kd: 36000 nM

B7: B2 (protein)
chain: PGPVPPSTALRELIEELINITQNQKAPLCNGSMVWSINLTAGMYCAALESLINVSGCSAIEKTQRMLSGFCPHKVSAGQFSSLHVTGSKIEVAQFVKDLLYHLRALFREGQFN
[3]
  Kd: 0.275 nM
[1]
  Kd: 1.5 nM

B8: C7 (protein)
chain: PGPVPPSTALSELMEELVNITQNQKAPLCNGSMVWSINLTAGMYCAALESLINVSGCSAIEKTQRMLSGFCPHKVSAGQFSSLHVRDSKIEVAQFVKDLLNHLKALFKEGQFN
[1]
  Kd: 0.272 nM
[2]
  Kd: 35000 nM

B9: A8 (protein)
chain: PGPVPPSTAIRELIEELINITQNQKAPLCNGSMVWSINLTAGMYCAALESLINVSGCSAIEKTQRMLSGFCPHKVSAGQFSSLHVRSSRIEVAQFVKDLLHHLRTLFREGQFN
[3]
  Kd: 2.06 nM
[1]
  Kd: 0.263 nM

B10: B6 (protein)
chain: PGPVPPSTATRELIEELINITQNQKAPLCNGSMVWSINLTAGMYCAALESLINVSGCSAIEKTQRMLSGFCPHKVSAGQFSSLHVRGSKIEVAQFVKDLLYHLRTLFREGQFN
[3]
  Kd: 5.9 nM
[4]
  Kd: 53 nM

B11: C9 (protein)
chain: PGPVPPSTAHLELIEELINITQNQKAPLCNGSMVWSINLTAGMYCAALESLINVSGCSAIEKTQRMLSGFCPHKVSAGQFSSLHVKETRIEVAQFVKDLLNHLKTLFKEGQFN
[1]
  Kd: 0.259 nM
[2]
  Kd: 31000 nM

B12: C3 (protein)
chain: PGPVPPSTAARELIEELVNITQNQKAPLCNGSMVWSINLTAGMYCAALESLINVSGCSAIEKTQRMLSGFCPHKVSAGQFSSLHVTGKRIEVAQFVKDLLNHLRALFKEGQFN
[1]
  Kd: 0.379 nM
[2]
  Kd: 16000 nM

B13: B4 (protein)
chain: PGPVPPSTALSELIEELINITQNQKAPLCNGSMVWSINLTAGMYCAALESLINVSGCSAIEKTQRMLSGFCPHKVSAGQFSSLHVKGSMIEVAQFVKDLLYHLRTLFREGQFN
[3]
  Kd: 18 nM
[4]
  Kd: 108 nM

B14: A5 (protein)
chain: PGPVPPSTALIELIEELINITQNQKAPLCNGSMVWSINLTAGMYCAALESLINVSGCSAIEKTQRMLSGFCPHKVSAGQFSSLHVKGSKIEVAQFVKDLLHHLRALMREGQFN
[3]
  Kd: 2.94 nM
[4]
  Kd: 50 nM

B15: A7 (protein)
chain: PGPVPPSTAIRELIEELINITQNQKAPLCNGSMVWSINLTAGMYCAALESLINVSGCSAIEKTQRMLSGFCPHKVSAGQFSSLHVRGSKIEVAQFVKDLLHHLRALFREGQFN
[3]
  Kd: 1.18 nM
[1]
  Kd: 0.218 nM

B16: A11 (protein)
chain: PGPVPPSTAVRELIEELINITQNQKAPLCNGSMVWSINLTAGMYCAALESLINVSGCSAIEKTQRMLSGFCPHKVSAGQFSSLHVRSSKIEVAQFVKDLLFHLRTLFREGQFN
[3]
  Kd: 0.084 nM
[1]
  Kd: 0.391 nM

B17: A6 (protein)
chain: PGPVPPSTAIRELIEELLNITQNQKAPLCNGSMVWSINLTAGMYCAALESLINVSGCSAIEKTQRMLSGFCPHKVSAGQFSSLHVMKSKIEVAQFVKDLLHHLRALFREGQFN
[3]
  Kd: 1.9 nM
[1]
  Kd: 0.267 nM

B18: C2 (protein)
chain: PGPVPPSTADIELIEELINITQNQKAPLCNGSMVWSINLTAGMYCAALESLINVSGCSAIEKTQRMLSGFCPHKVSAGQFSSLHVKKTRIEVAQFVKDLLLHLKKLFKEGQFN
[1]
  Kd: 0.025 nM
[2]
  Kd: 4000 nM

B19: CD122 (IL-2Rβ) (receptor)
chain: AVNGTSQFTCFYNSRANISCVWSQDGALQDTSCQVHAWPDRRRWNQTCELLPVSQASWACNLILGAPDSQKLTTVDIVTLRVLCREGVRWRVMAIQDFKPFENLRLMAPISLQVVHVETHRCNISWEISQASHYFERHLEFEARTLSPGHTWEEAPLLTLKQKQEWICLETLTPDTQYEFQVRVKPLQGEFTTWSPWSQPLAFRTKPAALGKD
MDNA109-Alb (2nd Gen.)
  Kd: 3.5 nM
MDNA19 (3rd Gen.)
  Kd: 2.1 nM
MDNA109 (1st Gen.)
  Kd: 1.8 nM

B20: CD25 (IL-2Rα) (receptor)
chain: ELCDDDPPEIPHATFKAMAYKEGTMLNCECKRGFRRIKSGSLYMLCTGNSSHSSWDNQCQCTSSATRNTTKQVTPQPEEQKERKTTEMQSPMQPVDQASLPGHCREPPPWENEATERIYHFVVGQMVYYQCVQGYRALHRGPAESVCKMTHGKTRWTQPQLICTGEMETSQFPGEEKPQASPEGRPESETSC
MDNA109-Alb (2nd Gen.)
  Kd: 56 nM
MDNA109 (1st Gen.)
  Kd: 26 nM
